This note sets out measurements from article PMC8145246 (Toxins, 2021).

Sequences and labels used below:
B1: MazF-mt1 toxin (M. tb), purified protein (enzyme)
chain: MMRRGEIWQVDLDPARGSEANNQRPAVVVSNDRANATATRLGRGVITVVPVTSNIAKVYPFQVLLSATTTGLQVDCKAQAEQIRSIATERLLRPIGRVSAAELAQLDEALKLHLDLWS

The target of data set [1] is B1. Kind of data set: crystal structure. Particulars: both partners purified.
The data set “crystal structure” concerns the molecule itself. Kind of data set: crystal structure.

Take TLEDDYANAWQEWSAAG [MazE-mt1 α3 peptide (Thr42-Gly58)]: the binding result in data set [1] is “binds”.

Consider B1, for which the binding result in “crystal structure” is “binds”.
